We go through 19 molecules from patent US20090305399A1.

Holding throughout (experiment): cell-based or functional assay
In experiment [1] the target is human Kv1.3 channel (human) (UniProt P22001).
Experiment [2] deals with human Kv1.1 channel (human) (UniProt Q09470).
Experiment [3] addresses human Kv1.3 channel (human) (UniProt P22001). The source holds these as a separate data set.

Like-named read-outs stand apart in the source and are kept apart here. Ends that are not written are not given here.

Chain of human Kv1.3 channel (human) (P22001 whole entry): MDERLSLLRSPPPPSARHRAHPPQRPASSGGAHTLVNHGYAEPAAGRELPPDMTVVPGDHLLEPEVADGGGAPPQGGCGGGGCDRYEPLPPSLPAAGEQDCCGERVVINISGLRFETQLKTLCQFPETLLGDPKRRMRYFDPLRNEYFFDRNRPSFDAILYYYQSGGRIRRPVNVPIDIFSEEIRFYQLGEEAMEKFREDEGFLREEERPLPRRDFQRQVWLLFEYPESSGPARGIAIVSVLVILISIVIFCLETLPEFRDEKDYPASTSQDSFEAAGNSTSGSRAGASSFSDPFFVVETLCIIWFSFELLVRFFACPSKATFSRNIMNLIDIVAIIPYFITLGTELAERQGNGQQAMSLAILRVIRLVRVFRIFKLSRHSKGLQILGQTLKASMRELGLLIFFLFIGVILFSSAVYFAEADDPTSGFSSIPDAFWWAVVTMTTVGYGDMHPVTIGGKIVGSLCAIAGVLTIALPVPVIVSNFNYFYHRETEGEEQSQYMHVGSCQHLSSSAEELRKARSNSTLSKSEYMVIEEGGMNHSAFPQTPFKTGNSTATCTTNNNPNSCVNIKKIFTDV
Chain of human Kv1.1 channel (human) (Q09470 whole entry): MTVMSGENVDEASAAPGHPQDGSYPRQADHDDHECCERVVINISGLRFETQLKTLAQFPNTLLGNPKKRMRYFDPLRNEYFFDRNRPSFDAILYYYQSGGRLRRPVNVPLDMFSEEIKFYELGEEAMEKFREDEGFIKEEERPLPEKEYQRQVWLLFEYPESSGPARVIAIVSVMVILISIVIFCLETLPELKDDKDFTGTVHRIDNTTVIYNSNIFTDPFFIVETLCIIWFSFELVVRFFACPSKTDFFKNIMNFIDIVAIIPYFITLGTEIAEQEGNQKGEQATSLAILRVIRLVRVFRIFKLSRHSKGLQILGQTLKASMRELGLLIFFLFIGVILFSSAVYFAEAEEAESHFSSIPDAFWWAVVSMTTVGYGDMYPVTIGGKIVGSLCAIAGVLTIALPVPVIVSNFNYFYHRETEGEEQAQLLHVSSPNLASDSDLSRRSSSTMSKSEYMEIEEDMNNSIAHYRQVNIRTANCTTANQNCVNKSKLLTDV

Turning to OSK1 analogue E16K, K20D (peptide), in experiment [1], the WB/IFNg IC50 (human whole blood IFNg response) was 1.32 nM and the WB/IL-2 IC50 (human whole blood IL-2 response) was 1.58 nM.
In experiment [1], OSK1 (wild-type) (peptide) showed a Kv1.3 IC50, whole cell patch clamp ePhys of 39 pM and a Kv1.3 Selectivity (=Kv1.1/Kv.3 IC50) of 5 fold. Further, the Kv1.1 IC50, whole cell patch clamp ePhys in experiment [2] was found to be 202 pM.
Take “CHO-derived Fc-L10-ShK[2-35] (Fc fusion)”: the IC50 of block of outward potassium current, whole cell patch clamp in experiment [1] is 115 pM.
Regarding “PEG-Fc-L10-SHK(2-35), Pool # 2 (Fc fusion)”, the IC50 Sustained in experiment [1] stood at 0.158 nM.
Molecule PEG-Fc-L10-OSK1, Pool # 2 (Fc fusion) registered an IC50 Sustained in experiment [1] of 0.332 nM.
In experiment [1], E. coli-derived Fc-L-OSK1 (Fc fusion) returned a Kv1.3 IC50 by WCVC (nM), HEK293/Kv1.3 cells of 3.2 nM.
In experiment [1], “E. coli-derived Fc-L-ShK[2-35] (Fc fusion)” yielded a Kv1.3 IC50 by IWQ (nM), CHO/Kv1.3 cells of 2.8 nM and a Kv1.3 IC50 by WCVC (nM), HEK293/Kv1.3 cells of 1.3 nM.
In experiment [1], Fc-L25-ShK[2-35] (Fc fusion) returned an IC50, whole cell patch clamp on HEK293/Kv1.3 cells of 150 pM.
As to Fc-L5-ShK[2-35] (Fc fusion), the IC50 of block of outward potassium current, whole cell patch clamp in experiment [1] is 100 pM.
Take “PEG-Fc-L10-SHK(2-35), Pool # 3 (Fc fusion)”: in experiment [1], the IC50 Sustained turned out to be 0.175 nM.
Regarding GGGGS-Osk1 (peptide), in experiment [1], the WB/IFNg IC50 (human whole blood IFNg response) is 2.2 nM and the WB/IL-2 IC50 (human whole blood IL-2 response) is 1.36 nM.
“E. coli-derived Fc-L-ShK[1-35] (Fc fusion)”: the Kv1.3 IC50 by WCVC (nM), HEK293/Kv1.3 cells in experiment [1] was 1.4 nM.
On to PEG-Fc-L10-OSK1, Pool # 3 (Fc fusion), for which the IC50 Sustained in experiment [1] came to 0.256 nM.
For the molecule 20k PEG-OSK1[Ala29, 1Nal34] (peptide), in experiment [1], the WB/IFNg IC50 (human whole blood IFNg response) was 0.081 nM and the WB/IL-2 IC50 (human whole blood IL-2 response) was found to be 0.049 nM.
The matching figures for 20k PEG-ShK (peptide): 0.065 nM and 0.046 nM.
In experiment [1], “E. coli-derived Shk[1-35]-L-Fc (Fc fusion)” registered a Kv1.3 IC50 by IWQ (nM), CHO/Kv1.3 cells of 2.4 nM.
Molecule synthetic OSK1 toxin peptide showed an IC50 of block of outward potassium current, whole cell patch clamp in experiment [1] of 39 pM.
Turning to “E. coli-derived ShK[2-35]-L-Fc (Fc fusion)”, the Kv1.3 IC50 by IWQ (nM), CHO/Kv1.3 cells in experiment [1] worked out at 4.9 nM.
Turning to SCIDTIPKSRCTAFQCKHSMKYRLSFCRKTCGTC (not fully specified; ends and bridges not checked) [synthetic ShK[2-35]], the IC50 of block of outward potassium current, whole cell patch clamp in experiment [3] was found to be 49 pM.
